Reference: patent publication US20230105667A1, “MESENCHYMAL STROMAL CELLS AND EXTRACELLULAR VESICLES FOR TREATING VIRAL INFECTIONS, INFLAMMATION, AND TISSUE FIBROSIS” (EXOSTEM BIOTEC LTD., priority 2020, published 2023)

Biological target: human ACE2 on cells (human lung epithelial cells expressing ACE2 (human) (UniProt Q9BYF1))
Experiment: cell-based or functional assay

Chain of UniProt Q9BYF1 (Q9BYF1 18-805 limits assumed): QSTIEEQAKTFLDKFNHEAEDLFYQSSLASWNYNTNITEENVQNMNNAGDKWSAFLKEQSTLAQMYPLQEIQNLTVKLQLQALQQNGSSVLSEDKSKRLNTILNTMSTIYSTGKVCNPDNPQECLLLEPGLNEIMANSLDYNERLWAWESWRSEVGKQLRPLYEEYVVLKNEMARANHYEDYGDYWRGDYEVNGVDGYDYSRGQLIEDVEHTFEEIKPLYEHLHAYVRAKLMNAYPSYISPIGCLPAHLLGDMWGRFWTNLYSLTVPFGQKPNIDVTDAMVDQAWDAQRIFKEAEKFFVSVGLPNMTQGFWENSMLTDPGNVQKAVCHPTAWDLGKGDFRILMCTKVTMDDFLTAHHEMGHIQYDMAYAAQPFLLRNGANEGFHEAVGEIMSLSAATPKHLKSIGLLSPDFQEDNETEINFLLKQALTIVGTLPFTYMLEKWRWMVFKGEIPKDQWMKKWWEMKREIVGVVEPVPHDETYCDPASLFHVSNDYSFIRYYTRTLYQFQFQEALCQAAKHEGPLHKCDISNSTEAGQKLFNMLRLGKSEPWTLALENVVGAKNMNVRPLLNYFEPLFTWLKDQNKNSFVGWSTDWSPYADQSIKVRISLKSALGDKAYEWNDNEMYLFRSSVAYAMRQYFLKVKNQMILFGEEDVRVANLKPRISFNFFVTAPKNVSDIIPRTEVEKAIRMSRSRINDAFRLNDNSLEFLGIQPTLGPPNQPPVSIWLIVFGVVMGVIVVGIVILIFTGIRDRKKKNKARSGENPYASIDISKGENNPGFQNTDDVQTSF

## SARS-CoV-2 receptor-binding-domain (RBD) displayed on extracellular vesicles from MSCs (ligand)
  TNFα levels in HBE cells treated with RBD recombinant protein: 50%
